What was measured:
[1] = target: T1, CBP-tagged Tfb2 (purified yeast Tfb2 protein) (S. cerevisiae, UniProt Q02939 1-513); experiment: pull-down
T1 sequence (looked up): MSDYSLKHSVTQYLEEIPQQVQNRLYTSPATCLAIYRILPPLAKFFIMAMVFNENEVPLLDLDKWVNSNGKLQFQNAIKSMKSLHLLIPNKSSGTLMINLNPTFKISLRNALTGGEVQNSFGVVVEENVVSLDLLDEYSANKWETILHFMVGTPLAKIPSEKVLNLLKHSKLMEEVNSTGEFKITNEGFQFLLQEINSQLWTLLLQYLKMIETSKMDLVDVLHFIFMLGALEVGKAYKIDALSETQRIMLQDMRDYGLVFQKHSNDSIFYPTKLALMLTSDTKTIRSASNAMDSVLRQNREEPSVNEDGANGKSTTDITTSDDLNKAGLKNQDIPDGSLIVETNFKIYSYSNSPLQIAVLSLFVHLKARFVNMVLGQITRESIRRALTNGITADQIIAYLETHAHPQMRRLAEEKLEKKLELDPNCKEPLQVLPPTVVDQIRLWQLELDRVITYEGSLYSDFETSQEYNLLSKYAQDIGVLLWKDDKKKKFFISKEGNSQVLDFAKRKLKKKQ

[2] = target: T2, Tfb5 (Saccharomyces cerevisiae, UniProt Q3E7C1 1-72); experiment: EMSA
T2 sequence: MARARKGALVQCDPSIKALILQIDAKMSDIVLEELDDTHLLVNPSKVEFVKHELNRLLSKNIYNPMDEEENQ

[3] = target: T1, CBP-tagged Tfb2 (purified yeast Tfb2 …); experiment: co-IP

B1: His6-Tfb5ΔN7 (domain or fragment, S. cerevisiae, UniProt Q3E7C1 8-72, looked up)
chain: ALVQCDPSIKALILQIDAKMSDIVLEELDDTHLLVNPSKVEFVKHELNRLLSKNIYNPMDEEENQ
binding result [1]: binds

B2: 79mer ss (ssDNA)
DNA: GGAATTCCGGAATTACAGGCTCTAACACCGAATTACAGGCTCTAACACCGTCTCATCTTCGCTCGTCCACTTTTTTTCG
binding result [2]: no binding

B3: His6-Tfb5 (purified yeast Tfb5 protein) (natural protein, S. cerevisiae, UniProt Q3E7C1 1-72, looked up)
chain: MARARKGALVQCDPSIKALILQIDAKMSDIVLEELDDTHLLVNPSKVEFVKHELNRLLSKNIYNPMDEEENQ
binding result [3]: binds

B4: His6-Tfb5ΔC14 (domain or fragment, S. cerevisiae, UniProt Q3E7C1 1-58, looked up)
chain: MARARKGALVQCDPSIKALILQIDAKMSDIVLEELDDTHLLVNPSKVEFVKHELNRLL
binding result [1]: binds

From paper PMC1807977 (Nucleic Acids Research, 2007)
